Laboratory results published in patent US20050002959A1 (GlaxoSmithKline, published 2005).
Several values for one entry are separate records, joined by “and”; a condition that tells them apart may be missing. Identical values can stand only once.

B1: recombinant human IL4 (non-glycosylated, produced in E. coli) (ligand, UniProt P05112 25-153, looked up)
chain: HKCDITLQEIIKTLNSLTEQKTLCTELTVTDIFAASKNTTEKETFCRAATVLRQFYSHHEKDTRCLGATAQQFHRHKQLIRFLKRLDRNLWGLAGLNSCPVKEANQSTLENFLERLKTIMREKYSKCSS
notes: also called hIL4; hIL-4
B2: humanized 3B9 (IgG4 variant) (antibody, V domains shown)
VH: QVTLRESGPALVKPTQTLTLTCTFSGFSLSTSGMGVSWIRQPPGKGLEWLAHIYWDDDKRYNPSLKSRLTISKDTSRNQVVLTMTNMDPVDTATYYCARRETVFYWYFDVWGRGTPVTVSS
VL: IVMTQSPDSLAVSLGERATINCKASQSVDYDGDSYMNWYQQKPGQPPKLLIYAASNLESGVPDRFSGSGSGTDFTLTISSLQAEDVAVYYCQQSNEDPPRFGGGTKVEIKR
B3: humanized 3B9 (IgG1) (antibody, V domains shown)
VH: B2 VH
VL: B2 VL
notes: Human IgG1 heavy constant region and human kappa constant region; also called humanized MAb 3B9; 3B9 (Humanized)

Columns and labels:
[1] = target: T1, IL4 receptor on the gibbon cell line MLA [ATCC TIB201] (gibbon); assay: displacement of 125I-rhIL4 (83 pM) from gibbon MLA cells
T1 construct: whole, on cells; also called its receptor
Method: The ability of 3B9 to inhibit the binding of IL4 to its receptor was studied using ¹²⁵I-rhIL4 binding to the gibbon cell line, MLA [ATCC TIB201], that bears approximately 6000 receptors per cell. MLA cells were incubated with […] for 30 minutes at 37° C. Uptake of radioactivity was determined in a gamma counter after separation of cell bound ¹²⁵I-IL4 by centrifugation through an oil-gradient. Non-specific binding was determined by incubating in the presence of a 100-fold molar excess of unlabelled IL4 [Park et al, J. Exp. Med., 166:476-488 (1987)]. The IC₅₀ value for unlabeled IL4 in this assay was 22 pM when the amount of (added) IL4 was 83 pM. For intact murine (IgG) 3B9 the IC₅₀ was 63 pM, and 93 pM for the Fab fragment.

[2] = target: B1; assay: cell-based or functional assay
[3] = target: B1; assay: titration microcalorimetry, pH 7.4, 150 mM NaCl, 25° C.
Method: (§1) The affinity and detailed thermodynamics of IL4 binding to humanized MAb 3B9 and murine 3B9 (Example 1) were determined by titration microcalorimetry.

[4] = target: B1; assay: titration microcalorimetry, calculated for pH 7.4, 150 mM NaCl, 25° C. by the Gibbs-Helmholz equation
Method: as §1

IC50 [1] [nM] | IC50, B cell proliferation [2] [nM] | IC50, IgE synthesis [2] | IC50, T cell proliferation [2] | IC50, CD23 induction [2] [nM] | -TΔS [3] [kcal/mol IL4] | ΔG [3] [kcal/mol IL4] | ΔH [3] [kcal/mol IL4] | Kd [4] [nM] | Binder
0.022 |  |  |  |  |  |  |  |  | B1
 | 0.079 | 0.406 nM | 0.04 nM |  |  |  |  |  | B2
 |  | 0.054 nM and 0.035 nM and 0.083 nM | 0.044 nM and 0.03 nM and 0.056 nM | 0.333 | 8.2 | -13.6 | -21.8 | 0.011 | B3
